{"source": "patent US5856125", "biological_target": "T1, ERF (Homo sapiens) (UniProt P50548)", "T1 sequence": "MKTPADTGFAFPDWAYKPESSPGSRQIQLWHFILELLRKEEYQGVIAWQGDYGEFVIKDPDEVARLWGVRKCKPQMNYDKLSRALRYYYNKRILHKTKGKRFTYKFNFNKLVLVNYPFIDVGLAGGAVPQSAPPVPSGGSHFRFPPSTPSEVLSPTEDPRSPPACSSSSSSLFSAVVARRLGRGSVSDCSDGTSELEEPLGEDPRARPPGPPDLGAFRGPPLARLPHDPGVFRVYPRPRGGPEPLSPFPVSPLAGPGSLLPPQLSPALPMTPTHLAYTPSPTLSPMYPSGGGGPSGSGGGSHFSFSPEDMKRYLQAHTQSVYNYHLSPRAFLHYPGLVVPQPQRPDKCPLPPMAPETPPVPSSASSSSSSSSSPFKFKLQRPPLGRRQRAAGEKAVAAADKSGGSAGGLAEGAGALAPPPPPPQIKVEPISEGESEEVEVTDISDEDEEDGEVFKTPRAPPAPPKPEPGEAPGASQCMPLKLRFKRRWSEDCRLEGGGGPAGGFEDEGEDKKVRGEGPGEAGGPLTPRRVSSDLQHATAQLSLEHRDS", "experiment": "cell_activity", "settings": "HeLa CAT reporter; values over 30 set to 30", "data": [{"substance": "ETS2 promoter -394 to +125", "values": [{"measurement": "activity (fold repression)", "value": "> 30"}]}]}
